Laboratory results: patent US20250277196A1, “EPSPS MUTANTS AND METHOD OF ITS USES” (CROPEDIT BIOTECHNOLOGY INC., priority 2021, published 2025)
Numbering of substitutions follows the chain as printed. Names and notes keep the numbering of the source. Values joined by “and” are separate entries in the source; they are usually repeats but may differ in a detail not shown here. Equal values may be shown once.

B1: OsGAPS (protein)
chain: MAAKAEEIVLQPIREISGAVQLPGSKSLSNRILLLSALSEGTTVVDNLLNSEDVHYMLEALKALGLSVEADKVAKRAVVVGCGGKFPVEKDAKEEVQLFLGNAATAMRSLTAAVTAAGGNATYVLDGVPRMRERPIGDLVVGLKQLGADVDCFLGTECPPVRVKGIGGLPGGKVKLSGSISSQYLSALLMAAPLALGDVEIEIIDKLISIPYVEMTLRLMERFGVKAEHSDSWDRFYIKGGQKYKSPGNAYVEGDASSASYFLAGAAITGGTVTVQGCGTTSLQGDVKFAEVLEMMGAKVTWTDTSVTVTGPPREPYGKKHLKAVDVNMNKMPDVAMTLAVVALFADGPTAIRDVASWRVKETERMVAIRTELTKLGASVEEGPDYCIITPPEKLNITAIDTYDDHRMAMAFSLAACADVPVTIRDPGCTRKTFPNYFDVLSTFVRN
modifications: This sequence is synthesized in lab.
B2: 1-139: rice EPSPS with A73T, E86G, G172A, P177S and V403A mutations (protein)
chain: B1 chain with A5T, E89G, V335A
modifications: This sequence is synthesized in lab.
notes: rice EPSPS with A73T, E86G, G172A, P177S and V403A mutations
B3: OsPS (protein)
chain: B1 chain with A104G
modifications: This sequence is synthesized in lab.
B4: 3-36: rice EPSPS with V113M, G172A, P177S and V403A mutations (protein)
chain: B1 chain with V45M, V335A
modifications: This sequence is synthesized in lab.
notes: rice EPSPS with V113M, G172A, P177S and V403A mutations
B5: 1-547: rice EPSPS with E137D, G172A, P177S, L253M and V403A mutations (protein)
chain: B1 chain with E69D, L185M, V335A
modifications: This sequence is synthesized in lab.
notes: rice EPSPS with E137D, G172A, P177S, L253M and V403A mutations
B6: OsTIPS: mutated rice EPSPS with mutation T173I and P177S (SEQ ID NO:35); same mutation type as glyphosate-resistant corn GA21 (protein)
chain: B1 chain with A104G, T105I
modifications: This sequence is synthesized in lab.
notes: same mutation type as glyphosate-resistant corn GA21
B7: OsGA (protein)
chain: B1 chain with S109P
modifications: This sequence is synthesized in lab.
B8: 1-68: rice EPSPS with A70V, G172A, P177S, V403A and R514S mutations (protein)
chain: B1 chain with A2V, V335A, R446S
modifications: This sequence is synthesized in lab.
notes: rice EPSPS with A70V, G172A, P177S, V403A and R514S mutations
B9: OsTIPTVA (protein)
chain: B1 chain with A104G, T105I, S109T, V335A
modifications: This sequence is synthesized in lab.
B10: 1-246: rice EPSPS with A145G, G172A, P177S, V403A, T442S and D472E mutations (protein)
chain: B1 chain with A77G, V335A, T374S, D404E
modifications: This sequence is synthesized in lab.
notes: rice EPSPS with A145G, G172A, P177S, V403A, T442S and D472E mutations
B11: 3-33: rice EPSPS with G172A, P177S, V208A, L264H, V403A and R514K mutations (protein)
chain: B1 chain with V140A, L196H, V335A, R446K
modifications: This sequence is synthesized in lab.
notes: rice EPSPS with G172A, P177S, V208A, L264H, V403A and R514K mutations
B12: OsPSVA (protein)
chain: B1 chain with A103G, V335A
modifications: This sequence is synthesized in lab.
B13: 1-386: rice EPSPS with G172A, P177S, V403A and F502V mutations (protein)
chain: B1 chain with V335A, F434V
modifications: This sequence is synthesized in lab.
notes: rice EPSPS with G172A, P177S, V403A and F502V mutations
B14: OsWt: wild type rice EPSPS (SEQ ID NO:2), chloroplast transit peptide removed (protein)
chain: B1 chain with A104G, S109P
modifications: This sequence is synthesized in lab.
B15: 1-98: rice EPSPS with A73T, G172A, P177S and V403A mutations (protein)
chain: B1 chain with A5T, V335A
modifications: This sequence is synthesized in lab.
notes: rice EPSPS with A73T, G172A, P177S and V403A mutations
B16: 1-411: rice EPSPS with G172A, P177S, Y252F and V403A mutations (protein)
chain: B1 chain with Y184F, V335A
modifications: This sequence is synthesized in lab.
notes: rice EPSPS with G172A, P177S, Y252F and V403A mutations
B17: OsGAVA (protein)
chain: B1 chain with S109P, V335A
modifications: This sequence is synthesized in lab.

What was measured:
[1] = system: E. coli lacking EPSPS; assay: Glyphosate resistance comparison among rice EPSPS mutants: growth of transformed E. coli on M9 medium with different glyphosate concentrations; format: cell-based, Escherichia coli; settings: M9 medium; for glyphosate concentration of the medium on which the strain can grow: tested 0, 0.5, 2, 4, 5, 25, 75, 100 mM glyphosate, FIG. 2, FIG. 3
Protocol: a) PCR system: According to the primer and template mixed PCR system corresponding to the target vector in the above table, the forward primer was 1.25 μl, the reverse primer was 1.25 μl, the template plasmid was 2 μl, the Q5 PCR master mix was 12.5 μl, and ddH2O was […].
b) PCR reaction conditions were as following: the annealing temperature was set according to the annealing temperature corresponding to the target carrier in the above table.
c) Took out 5 μl of the obtained PCR product and added it to the loading buffer for agarose gel electrophoresis. A band with a size of about 4.5 kb was considered successful.
d) Used NEB's KLD enzyme mixture to remove the template and connected the PCR product. The connection system was 5 μl KLD buffer, 1 μl KLD MIX, 1 μl PCR product, and ddH2O 3 μl. After ligating at room temperature for 5 min, transformed it into E. coli.
e) The ligation product was transformed into Dh5a competent E. coli lacking EPSPS. After resuscitation, the cells were washed twice with M9 medium, and then the washed cells were spread on M9 medium and cultured for 48 h. Sequenced the grown single colony (Tsingke Biological Technology Co., Ltd.), and selected the correct mutant to save for future use.
OsWt represents the wild type rice EPSPS(SEQ ID NO:2). […] OsGA represents the mutated rice EPSPS with mutation G172A. (SEQ ID NO:7) OsPS represents the mutated rice EPSPS with mutation P177S. (SEQ ID NO:8) OsGAPS represents the mutated rice EPSPS with mutation G172A and P177S. (SEQ ID NO:9) OsGAVA represents the mutated rice EPSPS with mutation G172A and V403A(SEQ ID NO:4). OsPSVA represents the mutated rice EPSPS with mutation P177S and V403A(SEQ ID NO:5). OsGPV represents the mutated rice EPSPS with mutation G172A, P177S and V403A(SEQ ID NO:6). OsTIPS represents the mutated rice EPSPS with mutation T173I and P177S. (SEQ ID NO: 35). OsTIPT represents the mutated rice EPSPS with mutation T173I and P177T. (SEQ ID NO:36). OsTIPSVA represents the mutated rice EPSPS with mutation T173I, P177S and V403A. (SEQ ID NO:37). OsTIPTVA represents the mutated rice EPSPS with mutation T173I, P177T and V403A. (SEQ ID NO:38). CP4 represents the wild type EPSPS from Agrobacterium tumefaciens. (SEQ ID NO:39)
Each product obtained from the above steps were transformed into E. coli lacking EPSPS. By detecting the growth of the transformed Escherichia coli on M9 medium containing different glyphosate concentrations (0 mM, 0.5 mM, 2 mM, 4 mM, 5 mM, 25 mM, 75 mM, 100 mM), the 1 mM glyphosate here was equivalent to […] glyphosate acid, the glyphosate resistance of rice EPSPS mutants was verified.

[2] = system: Escherichia coli DH5α with EPSPS gene knocked out; assay: Resistance test of rice EPSPS mutants from error-prone PCR on OsGPV: colony growth on medium with 0, 100 mM and 125 mM glyphosate (FIG. 7); format: cell-based; settings: for colony growth status compared with OsGPV: 125 mM glyphosate pressure, FIG. 7
Excerpt: In order to further improve the glyphosate resistance and develop highly resistant rice EPSPS mutants that can meet commercial production requirements, we used OsGPV as a template to perform random mutations, with high-concentration glyphosate screening, and to identify EPSPS mutant that can improve the glyphosate resistance.
We used OsGPV(SEQ ID NO:6) as a template to perform error-prone PCR. (With GeneMorph II Random Mutagenesis Kit, #200550, Agilent Technologies).
a) The recovered product was digested with EcoRI and SbfI, and then ligated to the pKED2 vector after the same double digestion with T4 DNA ligase to obtain the ligation product to obtain the vector carrying the rice EPSPS gene mutant.
b) Transformed the above vector into Escherichia coli DH5α with EPSPS gene knocked out. The transformation steps were as follows: add the above ligation product to 50 μl E. coli DH5α competent cells with EPSPS gene knocked out, mix well and incubate on ice for 30 min, then after a heat shock at 42° C. for 90 s, immediately place it in an ice bath on ice for 2 min after taking it out. After the ice bath, add 500 μl of LB liquid medium and resuscitate at 37° C. at 180 r/min for 45 min. The transformed Escherichia coli was a mutant library expressing rice EPSPS mutant genes obtained on the template basis of OsGPV.
5) Centrifuged the transformed product obtained above at 3000 rpm for 5 min, discarded the supernatant, then resuspended it in 1 ml M9 liquid medium, added 200 μl M9 liquid medium to resuspend and inoculated it on an M9 plate containing 75 mM glyphosate. Incubated at 37 degrees for 24 hours.
Pick and saved the single colonies grown in the above screening plates, and conduct further resistance identification and sequencing
ii. Resistance test of rice mutants. In this example, the wild-type rice EPSPS gene OsWT, the most widely used commercial glyphosate-resistant gene CP4EPSPS, the rice mutantOsTIPS, which had the same mutation type with commercial glyphosate-resistant corn GA21, and the rice mutant OsGPV with the highly glyphosate-resistant rice EPSPS mutant gene obtained in this study were transformed as control, and the newly obtained rice EPSPS mutants were transformed as the experimental group, and the glyphosate resistance among the control and the mutants were compared. The monoclonal bacteria of the control group and the experimental group were respectively inoculated into a medium containing 0, 100 mM and 125 mM glyphosate, and the growth of colonies in each group was observed.

Molecule	colony growth status compared with OsGPV [2]	other results
B1		growth on medium containing 0 mM glyphosate ([1]; 0 mM glyphosate, complementation of E. coli EPSPS function): cannot grow
B2	significantly higher than OsGPV	
B3		growth on 0.5 mM glyphosate medium [1]: can grow
B4	significantly higher than OsGPV	
B5	significantly higher than OsGPV	
B6		colony growth under 100 mM glyphosate ([2]; 100 mM glyphosate): did not grow
B7		growth on 0.5 mM glyphosate medium [1]: can grow
B8	significantly higher than OsGPV	
B9		glyphosate concentration of the medium on which the strain can grow [1]: 100 mM and 75 mM
B10	significantly higher than OsGPV	
B11	significantly higher than OsGPV	
B12		glyphosate concentration of the medium on which the strain can grow [1]: ≤ 4 mM
B13	significantly higher than OsGPV	
B14		growth on 0.5 mM glyphosate medium [1]: cannot grow
B15	significantly higher than OsGPV	
B16	significantly higher than OsGPV	
B17		glyphosate concentration of the medium on which the strain can grow [1]: ≤ 75 mM
